Test results from article PMC4789156 (Translational research : the journal of laboratory and …, 2015).

Biological target: Recombinant human Smad2 with C-terminal MYC/DDK tag (human, UniProt Q15796-1 1-467)
Experiment: co-IP

Recombinant human Smad2 with C-terminal MYC/DDK tag, sequence (Q15796 whole entry): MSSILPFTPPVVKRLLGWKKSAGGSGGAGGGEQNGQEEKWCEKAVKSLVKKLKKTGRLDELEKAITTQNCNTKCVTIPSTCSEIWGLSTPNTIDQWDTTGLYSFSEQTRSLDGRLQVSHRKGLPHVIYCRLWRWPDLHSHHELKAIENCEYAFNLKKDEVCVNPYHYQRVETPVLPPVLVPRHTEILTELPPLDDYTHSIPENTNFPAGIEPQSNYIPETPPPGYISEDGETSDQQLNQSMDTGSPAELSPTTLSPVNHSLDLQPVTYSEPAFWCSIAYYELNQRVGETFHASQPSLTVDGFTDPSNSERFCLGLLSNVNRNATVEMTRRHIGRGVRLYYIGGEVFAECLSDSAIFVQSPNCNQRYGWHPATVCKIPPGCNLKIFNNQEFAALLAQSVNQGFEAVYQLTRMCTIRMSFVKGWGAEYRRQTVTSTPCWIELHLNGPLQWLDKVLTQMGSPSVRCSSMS

binding result: binds
B1: M10 peptide (caspase-3 cleavage product of the hepatocyte growth factor receptor MET) (peptide)
peptide: TRPASFWETS
